Common to all, as to type: cell-based
The subject of data set [1] is GAL4 DNA binding sites (UAS-Luc, pFR-Luc reporter). Description: GAL4 DNA binding domain fusion transactivation assay (pFR-Luc) in HEK 293 cells. To be noted: normalized to pCMV-BD vector. The source says:
To determine if CREAP proteins can act as a transcription activators, various regions of all 3 CREAP homologs (amino acids 300-650 of CREAP1, amino acids 296-694 of CREAP2 and amino acids 335-635 of CREAP3) were expressed as fusion proteins with the DNA binding domain of GAL4 and tested for the ability to activate expression of a reporter gene linked to GAL4 protein binding sequences (UAS-Luc (pFR-Luc reporter). Briefly, the indicated regions of CREAP1, CREAP2 and CREAP3 were amplified by PCR and subcloned in frame into pCMV-BD vector (Stratagene) encoding GAL4 DNA binding domain. Selected plasmids and empty vector (pCMV-SPORT6) were transfected into HEK 293 cells at 75 ng/well using Fugene6 transfection reagent (Roche) as described above. pFR-Luc reporter (Stratagene) encoding firefly luciferase gene driven by minimal promoter linked to 5 concatamerized GAL4 binding sites (UAS) was co-transfected at 100 ng/well. As a positive control, the reporter was also co-transfected with a plasmid encoding GAL4-CREB fusion protein (Stratagene) alone or in the presence of pFC-PKA an expression construct encoding catalytic subunit of protein kinase A (Stratagene) to activate the CREB kinase inducible activation domain. Fold induction was compared to the reporter's activity measured in the cells transfected with pCMV-BD an expression vector carrying GAL4 DNA binding domain only.
Expression constructs encoding full length CREAP1, CREAP2 and CREAP3 as well as a Gal4 DNA binding domain alone or fused with C-terminal portions of CREAP1, CREAP2 and CREAP3 were tested for the ability to induce expression of a luciferase gene controled by a minimal promoter linked to GAL4 DNA binding sites (pFRLuciferase). The data shown are normalized to the value seen with pCMV-BD vector co-transfected with pFR-Luc reporter.

The target of data set [2] is T1, CREB-GAL4 fusion molecule (UniProt P04386+P16220).
T1 construct: host or cells: HLR cell line (5x GAL4 element-luciferase reporter)
T1 sequence (P04386+P16220 fused): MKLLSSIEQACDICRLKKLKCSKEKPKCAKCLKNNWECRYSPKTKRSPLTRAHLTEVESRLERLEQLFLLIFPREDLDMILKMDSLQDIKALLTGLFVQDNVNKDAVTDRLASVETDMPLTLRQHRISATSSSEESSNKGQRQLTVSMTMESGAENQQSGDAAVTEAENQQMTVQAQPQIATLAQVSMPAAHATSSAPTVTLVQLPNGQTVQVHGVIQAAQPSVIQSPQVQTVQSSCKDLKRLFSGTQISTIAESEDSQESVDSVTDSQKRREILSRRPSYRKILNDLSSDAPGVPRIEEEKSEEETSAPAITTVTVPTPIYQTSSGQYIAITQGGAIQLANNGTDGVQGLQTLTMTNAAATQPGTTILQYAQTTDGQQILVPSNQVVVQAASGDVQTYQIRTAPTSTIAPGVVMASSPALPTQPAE
Description: In vivo kinase assay, CREB-GAL4 fusion in HLR cells. To be noted: 40 hours after transfection. On the procedure: (§1) For in vivo kinase assay, activation domains of CREB or ATF2 transcription factors fused with the yeast GAL4 DNA binding domain (1-147 Amino Acids) constructs are used (Stratagene, PathDetect In Vivo Signal Transduction Pathway trans-reporting Systems). The HLR cell line that contains a 5× GAL4 DNA binding element and TATA box driving luciferase reporter is used per manufacturer's protocol (Stratagene). 10^4 HLR cells are split into each well of 96 well tissue culture plates. After 16 hours, cells are transfected with 100 ng of Creb-GAL4 or ATF2-GAL4 fusion constructs, 30 ng of Renilla luciferase control plasmid together with 100 ng of pCMVSPORT6, pCMVSPORT-CREAP1, pFC-PKA or pFC-MEKK (Stratagene) activator plasmids respectively. Transfection is done with Fugene6 reagent (Roche Molecular Biochemicals, Basel, Switzerland) according to the manufacturers manual. Forty hours after transfection, a Dual-Glo Luciferase assay (Promega) is conducted using the manufacturer's protocol.
(§2) As CREAP1 strongly activates CRE promoter transcription, we next investigated whether CREAP1 works through the CREB pathway. […]

For a further data set, the system named is GAL4-CREB fusion protein. Briefly: GAL4-CREB activation assay in HLR cell line. To be noted: HLR cell line with integrated pFR-Luc reporter, normalized to pCMV-BD vector. The protocol: To determine if CREAP proteins can directly activate CREB1 protein, the expression constructs of CREAP1, CREAP2 and CREAP3 were transfected individually or with GAL4-CREB plasmid (Stratagene) into HLR cell line (Stratagene) carrying genomic DNA integrated copies of pFR-Luc reporter. Briefly, HLR cells were maintained per manufacturer's instructions. Selected plasmids and either empty vector (pCMV-BD) or GAL4-CREB plasmid were transfected at 75 ng/well using Fugene6 transfection reagent (Roche) as described above. As a positive control pFC-PKA an expression construct encoding catalytic subunit of protein kinase A (Stratagene) was also co-trasfected with GAL4-CREB. Fold of activation was compared to the reporter's activity measured in the cells transfected with empty vector.
The ability of full length CREAP1, CREAP2 and CREAP3 to induce the activity of GAL4-CREB fusion protein (Stratagene) was tested. The data presented are normalized to the value seen with pCMV-BD vector. […] Note the fold induction obtained with positive control is lower when compared to the data from Table 6 when all the plasmids including the reporter were transiently transfected.

The target of data set [3] is T2, ATF2-GAL4 fusion molecule (Homo sapiens, UniProt P15336).
T2 construct: host or cells: HLR cell line (5x GAL4 element-luciferase reporter)
T2 sequence (P15336 with tags, fused parts or gaps limits assumed): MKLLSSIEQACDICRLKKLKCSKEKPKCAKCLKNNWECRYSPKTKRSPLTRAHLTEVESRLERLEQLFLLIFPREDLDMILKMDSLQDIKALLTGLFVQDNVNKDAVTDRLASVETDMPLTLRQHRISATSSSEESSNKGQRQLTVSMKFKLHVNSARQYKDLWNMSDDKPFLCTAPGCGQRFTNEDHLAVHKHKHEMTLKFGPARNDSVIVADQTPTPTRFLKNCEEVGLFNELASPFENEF
Briefly: In vivo kinase assay, ATF2-GAL4 fusion in HLR cells. To be noted: 40 hours after transfection. The protocol:
as §1, §2

Data set [4] relates to CRE-like element of IL-8 promoter (pCREL-Luc). Description: pCREL-Luc reporter (concatamerized CRE-like site) assay. The conditions noted are these: minimal promoter carrying concatamerized CRE-like site; data not shown. The source says:
The pIL-8Luc reporter was constructed by insertion of the −1491 to +43 region of the human IL-8 gene into pGL3Basic vector (Promega, Inc). PCR was used to generate a wild type minimal IL-8 promoter as well as point mutants. Mutations in AP-1, C/EBP, NF-κB were as described by Wu et al. (Wu et al. J. Biol. Chem., 272:2396-2403 (1997)). The sequence of a putative CRE-like site TGACATAA was mutated to TCGATCAA. Promoter constructs carrying 6 concatamerised copies of CRE-like response element (pCREL-Luc) or 5 copies of CRE-like element TGACACAA found in human PEPCK and CAPL promoters (pCREL2-Luc) were prepared by ligating PCR amplified sequences into pTAL-Luc (BD Biosciences). All techniques were performed using conventional methods.
In order to determine if the “CRE-like element” was directly responsive to CREAP1 or MAP3K11, the ability of both genes to activate a minimal promoter carrying concatamerized CRE-like site (pCREL-Luc) was examined. In addition, we studied the effect of PMA known inducer of AP-1.

B1: CREAP1: human CRE activating protein 1, 650 amino acids, SEQ ID NO 2; expressed from pCMVSPORT-CREAP1 (protein)
chain: MATSNNPRKFSEKIALHNQKQAEETAAFEEVMKDLSLTRAARLQLQKSQYLQLGPSRGQYYGGSLPNVNQIGSGTMDLPFQPSGFLGEALAAAPVSLTPFQSSGLDTSRTTRHHGLVDRVYRERGRLGSPHRRPLSVDKHGRQADSCPYGTMYLSPPADTSWRRTNSDSALHQSTMTPTQPESFSSGSQDVHQKRVLLLTVPGMEETTSEADKNLSKQAWDTKKTGSRPKSCEVPGINIFPSADQENTTALIPATHNTGGSLPDLTNIHFPSPLPTPLDPEEPTFPALSSSSSTGNLAANLTHLGIGGAGQGMSTPGSSPQHRPAGVSPLSLSTEARRQQASPTLSPLSPITQAVAMDALSLEQQLPYAFFTQAGSQQPPPQPQPPPPPPPASQQPPPPPPPQAPVRLPPGGPLLPSASLTRGPQPPPLAVTVPSSLPQSPPENPGQPSMGIDIASAPALQQYRTSAGSPANQSPTSPVSNQGFSPGSSPQHTSTLGSVFGDAYYEQQMAARQANALSHQLEQFNMMENAISSSSLYSPGSTLNYSQAAMMGLTGSHGSLPDSQQLGYASHSGIPNIILTVTGESPPSLSKELTSSLAGVGDVSFDSDSQFPLDELKIDPLTLDGLHMLNDPDMVLADPATEDTFRMDRL
modifications: human
Turning to B1, the “Fold Induction” value in data set [1] worked out at 2.468; in the data set on GAL4-CREB fusion protein, 6.122. For the same molecule, the “transactivation of the CREB-GAL4 fusion molecule on the GAL4 promoter” value in data set [2] is “strongly stimulates”. Moreover, the “activation of the ATF2-GAL4 fusion molecule” value in data set [3] is on record as “unable to activate”. The “activation of pCREL-Luc” value in data set [4] was “strongly activated”.
